Experiments:
[1] = target: T1, FcγRIa extracellular domain with C-terminal His tag (human, UniProt P12314 16-292); assay: SPR (Biacore), antibody captured on antigen peptide chip, FcγR as analyte; relative binding
T1 construct: extracellular domain; soluble receptor expressed in FreeStyle293 cells, used as analyte in Biacore; also called FcgRI; 1a; not shown: His tag attached to the C terminus

[2] = target: T2, FcγRIIb extracellular domain with C-terminal His tag (human, UniProt P31994 43-217); assay: as above
T2 construct: extracellular domain; soluble receptor expressed in FreeStyle293 cells, used as analyte in Biacore; also called FcgRIIb; 2b; not shown: His tag attached to the C terminus
T2 sequence (looked up): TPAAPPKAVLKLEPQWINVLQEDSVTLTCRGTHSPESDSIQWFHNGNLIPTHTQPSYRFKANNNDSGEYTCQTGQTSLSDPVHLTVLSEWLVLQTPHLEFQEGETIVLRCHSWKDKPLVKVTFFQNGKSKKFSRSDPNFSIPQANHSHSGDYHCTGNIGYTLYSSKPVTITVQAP

FcγRIIa H = target: T3, FcγRIIa H (human, UniProt P12318 34-217); assay: SPR (Biacore), relative binding vs GpH7-A5/GpH7-B3/GpL16-k0
T3 construct: extracellular domain; also called FcγRIIa type H; 2aH
T3 sequence (looked up): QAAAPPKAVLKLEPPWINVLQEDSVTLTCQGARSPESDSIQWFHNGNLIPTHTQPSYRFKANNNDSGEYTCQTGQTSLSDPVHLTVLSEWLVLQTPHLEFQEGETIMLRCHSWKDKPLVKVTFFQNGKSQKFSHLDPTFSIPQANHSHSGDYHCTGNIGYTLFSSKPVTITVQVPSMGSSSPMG
Procedure: (§1) The heterodimerized antibodies He Abs in which one of the H chains was introduced with an alteration were assayed for their binding activities to each activating FcγR and inhibitory FcγR according to the method described in Example 4. […] The activating FcγRs in FIGS. 26, 27, 28, and 29 are FcγRIa, FcγRIIa (R), FcγRIIa (H), and FcγRIIIa, respectively.
(§2) Analysis of interaction between objective antibody and the FcγR was carried out using Biacore T100 (GE Healthcare). HBS-EP+ (GE Healthcare) was used as the running buffer, and the measurement temperature was set to 25° C. Chips produced by immobilizing the antigen peptide by the amine coupling method to a Series S Sencor Chip CM5 (GE Healthcare), or alternatively, chips produced by allowing preliminarily biotinylated antigen peptides to interact with and immobilize onto a Series S Sensor Chip SA (certified) (GE Healthcare) were used. Antibodies of interest were captured onto an antigen peptide-immobilized chip, and allowed to interact to each FcγR diluted with running buffer. To regenerate and repeatedly use the chip, the antibodies captured on the chip were washed off by reacting 10 mM glycine-HCl, pH 1.5.

FcγRIIb = target: T4, FcγRIIb (human, UniProt P31994 43-217); assay: as above
T4 construct: extracellular domain; also called 2b
T4 sequence (looked up): T2 sequence (looked up)
Procedure: as §1, §2

T1 sequence (P12314 16-292): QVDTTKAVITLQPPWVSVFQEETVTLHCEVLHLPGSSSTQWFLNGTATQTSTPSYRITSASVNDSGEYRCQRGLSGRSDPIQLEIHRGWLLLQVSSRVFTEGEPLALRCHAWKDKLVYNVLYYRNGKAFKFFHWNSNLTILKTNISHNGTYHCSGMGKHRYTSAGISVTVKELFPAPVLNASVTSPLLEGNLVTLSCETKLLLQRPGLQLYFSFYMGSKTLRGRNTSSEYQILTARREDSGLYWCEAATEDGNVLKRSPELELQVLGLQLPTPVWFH

B1: GpH7-A5/GpH7-B3 variant P329_01G/GpL16-k0 (antibody, human IgG1, kappa)
heavy 1: not shown
heavy 2: not shown
light: DIVMTQSPLSLPVTPGEPASISCQASESLVHSNRNTYLHWYLQKPGQSPQLLIYKVSNRFSGVPDRFSGSGSGTDFTLKISRVEAEDVGVYYCSQNTHVPPTFGQGTKVEIERTVAAPSVFIFPPSDEQLKSGTASVVCLLNNFYPREAKVQWKVDNALQSGNSQESVTEQDSKDSTYSLSSTLTLSKADYEKHKVYACEVTHQGLSSPVTKSFNRGEC
notes: heterodimerized anti-glypican-3 IgG1; alteration in the GpH7-B3 chain only; also called He Ab
For B1, the He/Con_1a [1] was 101 % of control GpH7-A5/GpH7-B3/GpL16-k0 (=100) and the He/Con_2b [2] was 41.7 % of control GpH7-A5/GpH7-B3/GpL16-k0 (=100).

B2: GpH7-A5/GpH7-B3 variant S324_20W/GpL16-k0 (antibody, human IgG1, kappa)
heavy 1: not shown
heavy 2: not shown
light: B1 light
notes: as for B1
B2 was tested, and the He/Con_1a [1] was 114 % of control GpH7-A5/GpH7-B3/GpL16-k0 (=100) and the He/Con_2b [2] was 87.5 % of control GpH7-A5/GpH7-B3/GpL16-k0 (=100).

B3: GpH7-A5/GpH7-B3 variant Q295_12R/GpL16-k0 (antibody, human IgG1, kappa)
heavy 1: not shown
heavy 2: not shown
light: B1 light
notes: as for B1
With B3 the He/Con_1a [1] was 100 % of control GpH7-A5/GpH7-B3/GpL16-k0 (=100) and the He/Con_2b [2] was 65.2 % of control GpH7-A5/GpH7-B3/GpL16-k0 (=100).

B4: GpH7-A5/GpH7-B3 variant Q295_05P/GpL16-k0 (antibody, human IgG1, kappa)
heavy 1: not shown
heavy 2: not shown
light: B1 light
notes: as for B1
For B4, the He/Con_1a [1] was 103 % of control GpH7-A5/GpH7-B3/GpL16-k0 (=100) and the He/Con_2b [2] was 67.5 % of control GpH7-A5/GpH7-B3/GpL16-k0 (=100).

B5: GpH7-A5/GpH7-B3 variant S324_09D/GpL16-k0 (antibody, human IgG1, kappa)
heavy 1: not shown
heavy 2: not shown
light: B1 light
notes: as for B1
For B5, the He/Con_1a [1] was 104 % of control GpH7-A5/GpH7-B3/GpL16-k0 (=100) and the He/Con_2b [2] was 85.8 % of control GpH7-A5/GpH7-B3/GpL16-k0 (=100).

B6: GpH7-A5/GpH7-B3 variant Q295_13S/GpL16-k0 (antibody, human IgG1, kappa)
heavy 1: not shown
heavy 2: not shown
light: B1 light
notes: as for B1
In the case of B6, the He/Con_1a [1] is reported as 102 % of control GpH7-A5/GpH7-B3/GpL16-k0 (=100) and the He/Con_2b [2] is reported as 56.9 % of control GpH7-A5/GpH7-B3/GpL16-k0 (=100).

B7: GpH7-A5/GpH7-B3 variant S324_14T/GpL16-k0 (antibody, human IgG1, kappa)
heavy 1: not shown
heavy 2: not shown
light: B1 light
notes: as for B1
With B7 the He/Con_1a [1] was 121 % of control GpH7-A5/GpH7-B3/GpL16-k0 (=100) and the He/Con_2b [2] was 88.4 % of control GpH7-A5/GpH7-B3/GpL16-k0 (=100).

B8: GpH7-A5/GpH7-B3 variant A330_05P/GpL16-k0 (antibody, human IgG1, kappa)
heavy 1: not shown
heavy 2: not shown
light: B1 light
notes: heterodimerized IgG1, mutation in one H chain only; also called He Ab
B8 was tested, and the He/Con_2aH (FcγRIIa H) was 85.7 % of control He Ab (=100) and the He/Con_2b (FcγRIIb) was 137 % of control He Ab (=100).

B9: GpH7-A5/GpH7-B3 variant S324_16H/GpL16-k0 (antibody, human IgG1, kappa)
heavy 1: not shown
heavy 2: not shown
light: B1 light
notes: as for B1
With B9 the He/Con_1a [1] was 113 % of control GpH7-A5/GpH7-B3/GpL16-k0 (=100) and the He/Con_2b [2] was 83.5 % of control GpH7-A5/GpH7-B3/GpL16-k0 (=100).

B10: GpH7-A5/GpH7-B3 variant A327_10E/GpL16-k0 (antibody, human IgG1, kappa)
heavy 1: not shown
heavy 2: not shown
light: B1 light
notes: as for B8
In the case of B10, the He/Con_2aH (FcγRIIa H) is reported as 91.3 % of control He Ab (=100) and the He/Con_2b (FcγRIIb) is reported as 140 % of control He Ab (=100).

B11: GpH7-A5/GpH7-B3 variant Q295_07I/GpL16-k0 (antibody, human IgG1, kappa)
heavy 1: not shown
heavy 2: not shown
light: B1 light
notes: as for B1
B11 was tested, and the He/Con_1a [1] was 103 % of control GpH7-A5/GpH7-B3/GpL16-k0 (=100) and the He/Con_2b [2] was 84.3 % of control GpH7-A5/GpH7-B3/GpL16-k0 (=100).

B12: GpH7-A5/GpH7-B3 variant S324_12R/GpL16-k0 (antibody, human IgG1, kappa)
heavy 1: not shown
heavy 2: not shown
light: B1 light
notes: as for B1
With B12 the He/Con_1a [1] was 102 % of control GpH7-A5/GpH7-B3/GpL16-k0 (=100) and the He/Con_2b [2] was 63.1 % of control GpH7-A5/GpH7-B3/GpL16-k0 (=100).

B13: GpH7-A5/GpH7-B3 variant Q295_09D/GpL16-k0 (antibody, human IgG1, kappa)
heavy 1: not shown
heavy 2: not shown
light: B1 light
notes: as for B1
With B13 the He/Con_1a [1] was 100 % of control GpH7-A5/GpH7-B3/GpL16-k0 (=100) and the He/Con_2b [2] was 60.8 % of control GpH7-A5/GpH7-B3/GpL16-k0 (=100).

B14: GpH7-A5/GpH7-B3 variant S324_15Y/GpL16-k0 (antibody, human IgG1, kappa)
heavy 1: not shown
heavy 2: not shown
light: B1 light
notes: as for B1
B14 was tested, and the He/Con_1a [1] was 114 % of control GpH7-A5/GpH7-B3/GpL16-k0 (=100) and the He/Con_2b [2] was 88.2 % of control GpH7-A5/GpH7-B3/GpL16-k0 (=100).

B15: GpH7-A5/GpH7-B3 variant A330_01G/GpL16-k0 (antibody, human IgG1, kappa)
heavy 1: not shown
heavy 2: not shown
light: B1 light
notes: as for B8
For B15, the He/Con_2aH (FcγRIIa H) was 99 % of control He Ab (=100) and the He/Con_2b (FcγRIIb) was 104 % of control He Ab (=100).

B16: GpH7-A5/GpH7-B3 variant K334_05P/GpL16-k0 (antibody, human IgG1, kappa)
heavy 1: not shown
heavy 2: not shown
light: B1 light
notes: as for B8
In the case of B16, the He/Con_2aH (FcγRIIa H) is reported as 97.6 % of control He Ab (=100) and the He/Con_2b (FcγRIIb) is reported as 105 % of control He Ab (=100).

B17: GpH7-A5/GpH7-B3 variant K326_20W/GpL16-k0 (antibody, human IgG1, kappa)
heavy 1: not shown
heavy 2: not shown
light: B1 light
notes: as for B8
In the case of B17, the He/Con_2aH (FcγRIIa H) is reported as 83.3 % of control He Ab (=100) and the He/Con_2b (FcγRIIb) is reported as 148 % of control He Ab (=100).

B18: GpH7-A5/GpH7-B3 variant K334_12R/GpL16-k0 (antibody, human IgG1, kappa)
heavy 1: not shown
heavy 2: not shown
light: B1 light
notes: as for B8
In the case of B18, the He/Con_2aH (FcγRIIa H) is reported as 99.7 % of control He Ab (=100) and the He/Con_2b (FcγRIIb) is reported as 111 % of control He Ab (=100).

B19: GpH7-A5/GpH7-B3 variant Q295_15Y/GpL16-k0 (antibody, human IgG1, kappa)
heavy 1: not shown
heavy 2: not shown
light: B1 light
notes: as for B1
With B19 the He/Con_1a [1] was 102 % of control GpH7-A5/GpH7-B3/GpL16-k0 (=100) and the He/Con_2b [2] was 65.4 % of control GpH7-A5/GpH7-B3/GpL16-k0 (=100).

B20: GpH7-A5/GpH7-B3 variant S267_11K/GpL16-k0 (antibody, human IgG1, kappa)
heavy 1: not shown
heavy 2: not shown
light: B1 light
notes: as for B8
With B20 the He/Con_2b (FcγRIIb) was 12.2 % of control He Ab (=100).

B21: GpH7-A5/GpH7-B3 variant A327_18N/GpL16-k0 (antibody, human IgG1, kappa)
heavy 1: not shown
heavy 2: not shown
light: B1 light
notes: as for B8
B21 was tested, and the He/Con_2aH (FcγRIIa H) was 66.8 % of control He Ab (=100) and the He/Con_2b (FcγRIIb) was 113 % of control He Ab (=100).
